Article PMC7480107

Biological target: F-actin (rabbit muscle actin, polymerized) (rabbit) (UniProt P68135)
Experiment: co-sedimentation

percent of the protein in the pellet with F-actin [%]	Substance
84	Pav-HEAD (1-500 aa) (domain or fragment)
87	Pav^DEAD-HEAD (1-500 aa with G131E mutation) (domain or fragment)
